Source: patent US8252554B2, “Halohydrin dehalogenases and related polynucleotides” (Codexis, Inc., priority 2003, dated 2012)
Residue numbers refer to the chain shown, from its start. Names and notes keep the numbering of the source.

B1: W139R/N176E: intermediate active HHDH variant with W139 and N176 mutated into an apparent salt bridge (with reference to SEQ ID NO: 2) (protein)
chain: MSTAIVTNVKHFGGMGSALRLSEAGHTVACHDESFKQKDELEAFAETYPQLKPMSEQEPAELIEAVTSAYGQVDVLVSNDIFAPEFQPIDKYAVEDYRGAVEALQIRPFALVNAVASQMKKRKSGHIIFITSATPFGPRKELSTYTSARAGACTLANALSKELGEYNIPVFAIGPEYLHSEDSPYFYPTEPWKTNPEHVAHVKKVTALQRLGTQKELGELVAFLASGSCDYLTGQVFWLAGGFPMIERWPGMPE
B2: SEQ ID NO: 6: improved HHDH (halohydrin dehalogenase) polypeptide of the Sequence Listing (protein)
chain: B1 chain with A24T, R139W, E176N
B3: SEQ ID NO: 14: improved HHDH (halohydrin dehalogenase) polypeptide of the Sequence Listing (protein)
chain: B1 chain with V6D, G14S, M15K, S17T, E40D, A133S, R139W, E176N
B4: SEQ ID NO: 26: improved HHDH (halohydrin dehalogenase) polypeptide of the Sequence Listing (protein)
chain: B1 chain with F136L, R139W, E176N
B5: SEQ ID NO: 30: improved HHDH (halohydrin dehalogenase) polypeptide of the Sequence Listing (protein)
chain: B1 chain with A4V, R139W, E176N
B6: SEQ ID NO: 24: improved HHDH (halohydrin dehalogenase) polypeptide of the Sequence Listing (protein)
chain: B1 chain with R139W, E176N, V199M
B7: SEQ ID NO: 22: improved HHDH (halohydrin dehalogenase) polypeptide of the Sequence Listing (protein)
chain: B1 chain with K36N, R139W, E176N, M252V
B8: SEQ ID NO: 8: improved HHDH (halohydrin dehalogenase) polypeptide of the Sequence Listing (protein)
chain: B1 chain with R20S, A29T, R139W, E176N
B9: SEQ ID NO: 20: improved HHDH (halohydrin dehalogenase) polypeptide of the Sequence Listing (protein)
chain: B1 chain with T3P, R139W, E176N
B10: SEQ ID NO: 12: improved HHDH (halohydrin dehalogenase) polypeptide of the Sequence Listing (protein)
chain: B1 chain with T3P, V9I, G13S, G16C, S17R, R139W, E176N
B11: SEQ ID NO: 34: improved HHDH (halohydrin dehalogenase) polypeptide of the Sequence Listing (protein)
chain: B1 chain with T3P, S17T, H26Q, R139W, E176N
B12: W139D/N176R: intermediate active HHDH variant with W139 and N176 mutated into an apparent salt bridge (with reference to SEQ ID NO: 2) (protein)
chain: B1 chain with R139D, E176R
B13: SEQ ID NO: 10: improved HHDH (halohydrin dehalogenase) polypeptide of the Sequence Listing (protein)
chain: B1 chain with S2T, T3A, A29T, S34R, F35L, K52N, R139W, E176N
B14: SEQ ID NO: 4: improved HHDH (halohydrin dehalogenase) polypeptide of the Sequence Listing (protein)
chain: B1 chain with K36N, F44L, A45P, S55R, R139W, E176N
B15: SEQ ID NO: 16: improved HHDH (halohydrin dehalogenase) polypeptide of the Sequence Listing (protein)
chain: B1 chain with F136L, R139W, E176N
B16: SEQ ID NO: 18: improved HHDH (halohydrin dehalogenase) polypeptide of the Sequence Listing (protein)
chain: MSTAIVTNVKHFGGMGSALRLSEAGHTVACHDESFKQKDELEAFAETYPQLKPMSEQEPAELIEAVTSAYGQVDVLVSNDIFAPEFQPIDKYAVEDYRGAVEALQIRPFALVNAVASQMKKRKSGHIIFITSATPFGPWKELSTYTSARAGACTLANALSKELGEYNIPVFAIGPNYLHSEDSPYFYPTEPWKTNPEHVAHVKKVTALQRLGTQKELGELVAFLASGSCDYLTGQGFFLAGGFPMIERWPGM
B17: SEQ ID NO: 28: improved HHDH (halohydrin dehalogenase) polypeptide of the Sequence Listing (protein)
chain: B16 chain with T3P, G236V, F238W

Tests used:
[1] = molecular target: HHDH (Agrobacterium tumefaciens, UniProt Q93D82); test: Inhibition of HHDH by ECAA; type: biochemical; conditions: inhibitor of HHDH
Sequence of HHDH (Q93D82 entry or part of it): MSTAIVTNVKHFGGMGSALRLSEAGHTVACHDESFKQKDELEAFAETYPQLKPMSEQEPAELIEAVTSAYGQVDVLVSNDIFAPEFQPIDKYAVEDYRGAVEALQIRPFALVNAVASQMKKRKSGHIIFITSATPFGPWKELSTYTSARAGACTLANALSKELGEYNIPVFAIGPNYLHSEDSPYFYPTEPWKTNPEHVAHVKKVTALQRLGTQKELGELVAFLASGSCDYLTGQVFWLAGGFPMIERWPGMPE

[2] = Example 5A gas chromatography assay of HHDH activity (conversion of ECHB to ethyl (R)-4-cyano-3-hydroxybutyrate); type: biochemical; conditions: for HHDH activity greater than the HHDH activity of Agrobacterium sp. (wild-type) HHDH (SEQ ID NO: 2): assay described in Example 5A; for Fold Improvement in HHDH Activity over Aerobacterium sp. HHDH (SEQ ID NO: 2): ECHB substrate, Activity of Improved HHDH Enzyme/Activity of Agrobacterium sp. HHDH (SEQ ID NO: 2)
Method: To a solution of ethyl (S)-4-chloro-3-hydroxybutyrate (10 mM-100 mM) in 500 mM HCN (500 mM NaCN adjusted to pH 7.0 with phosphoric acid) was added the halohydrin dehalogenase enzyme as a predissolved solution in the same buffer. Over time, aliquots of the mixture were withdrawn and extracted with three volumes of ethyl acetate. The organic layer was then analysed for ethyl (R)-4-cyano-3-hydroxybutyrate by gas chromatography (GC), as described hereinbelow in Example 6. Samples were taken at various time points, and the peak area of the product cyanohydrin, ethyl (R)-4-cyano-3-hydroxybutyrate, was plotted as a function of time. Time points are selected at low conversion, for example, less than 5% conversion, to avoid the effect of product inhibition (e.g., 0.5%, 1.0%, 1.5%, 2.0%, 2.5%, 3.0%, etc.). The peak areas were converted to concentration units using a standard curve that was prepared for the ethyl (R)-4-cyano-3-hydroxybutyrate. Activity of the halohydrin dehalogenase was determined in units of μmol (cyanohydrin produced)/min/mg (total halohydrin dehalogenase catalyst). Relative activities of some of the clones are shown in Table 2, computed as Activity of Improved HHDH Enzyme/Activity of Agrobacterium sp. HHDH (SEQ ID NO: 2).
The ethyl (R)-4-cyano-3-hydroxybutyrate produced in Example 5A was analyzed using gas chromatography with flame ionization (FID) detection using an Agilent® HP-5™ column, 30 m long, 0.32 mm inner diameter, film 0.25 μm, using the following program: 1 minute at 100° C., 5° C./minute for 10 minutes; 25° C./minute for 2 minutes; then 2 minutes at 200° C. Inlet and outlet temperatures were both 300° C., and the flow rate was 2 ml/minute. Under these conditions, ethyl (R)-4-cyano-3-hydroxybutyrate elutes at 6.25 minutes and ethyl (S)-4-chloro-3-hydroxybutyrate elutes at 4.5 minutes. Chemical purity of the species was measured using the integrated peak areas from the gas chromatography results.

| Molecule | Fold Improvement in HHDH Activity over Aerobacterium sp. HHDH (SEQ ID NO: 2) [2] [Fold] | also measured |
| --- | --- | --- |
| CCOC(=O)CC(=O)CCl [ECAA, Ethyl-4-chloroacetoacetate] |  | Ki [1]: ~70 µM |
| B1 |  | HHDH activity greater than the HHDH activity of Agrobacterium sp. (wild-type) HHDH (SEQ ID NO: 2) [2]: greater HHDH activity relative to wildtype HHDH |
| B2 | 1.6 |  |
| B3 | 1.4 |  |
| B4 | 1.7 |  |
| B5 | 2.8 |  |
| B6 | 3.2 |  |
| B7 | 2.5 |  |
| B8 | 1.8 |  |
| B9 | 3.8 |  |
| B10 | 2.5 |  |
| B11 | 2.4 |  |
| B12 |  | HHDH activity greater than the HHDH activity of Agrobacterium sp. (wild-type) HHDH (SEQ ID NO: 2) [2]: greater HHDH activity relative to wildtype HHDH |
| B13 | 1.7 |  |
| B14 | 1.5 |  |
| B15 | 2.0 |  |
| B16 | 2.7 |  |
| B17 | 2.2 |  |
